Series [1] concerns the target T1, Δ22 (FLI portion of EWS/FLI);FLI ETS domain (;, UniProt Q01543;Q01543 220-452;270-371, |).
T1 sequence 1: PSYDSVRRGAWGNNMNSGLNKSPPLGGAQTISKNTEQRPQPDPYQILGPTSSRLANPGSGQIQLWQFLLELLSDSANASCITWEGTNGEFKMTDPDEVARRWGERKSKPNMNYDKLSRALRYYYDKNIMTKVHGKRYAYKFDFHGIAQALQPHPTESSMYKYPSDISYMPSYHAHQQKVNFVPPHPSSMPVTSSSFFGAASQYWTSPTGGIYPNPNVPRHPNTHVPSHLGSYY
T1 sequence 2: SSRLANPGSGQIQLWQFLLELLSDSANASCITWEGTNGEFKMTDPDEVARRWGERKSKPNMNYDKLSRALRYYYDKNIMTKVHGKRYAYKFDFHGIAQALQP
As to the kind of experiment: EMSA. For orientation: In EMSA bound probe runs differently from free probe, usually more slowly.

The target of series [2] is T1, Δ22 (FLI portion of EWS/FLI);FLI ETS …. As to the kind of experiment: EMSA. This is another data set of the same source.
Series [3] addresses T2, Δ22 (FLI portion of EWS/FLI) (UniProt Q01543 220-452).
T2 sequence: T1 sequence 1
The series can be described thus: fluorescence polarization stoichiometry. A general note: Fluorescence polarisation rises when a labelled molecule tumbles more slowly, as on binding a larger partner.

In another series the target is T3, ETS1 (UniProt P14921 1-441).
T3 sequence: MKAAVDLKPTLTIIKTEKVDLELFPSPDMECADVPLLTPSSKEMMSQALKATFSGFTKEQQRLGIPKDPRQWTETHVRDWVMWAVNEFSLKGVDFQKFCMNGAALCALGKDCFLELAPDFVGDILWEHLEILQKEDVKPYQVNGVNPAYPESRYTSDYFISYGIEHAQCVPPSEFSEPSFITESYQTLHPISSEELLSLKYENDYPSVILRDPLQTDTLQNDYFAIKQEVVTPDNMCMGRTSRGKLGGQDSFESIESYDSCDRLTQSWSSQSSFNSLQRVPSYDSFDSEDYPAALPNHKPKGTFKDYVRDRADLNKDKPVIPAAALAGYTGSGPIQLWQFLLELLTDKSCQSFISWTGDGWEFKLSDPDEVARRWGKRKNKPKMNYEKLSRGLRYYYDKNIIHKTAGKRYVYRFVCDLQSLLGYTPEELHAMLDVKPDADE
The series can be described thus: EMSA.

In a further series the target is ELF1 (UniProt P32519 1-619). The series can be described thus: EMSA.

Where two headings read alike, the source gives them in different places.

The source of these data is paper PMC2935179.

ELF1, sequence (P32519 whole entry): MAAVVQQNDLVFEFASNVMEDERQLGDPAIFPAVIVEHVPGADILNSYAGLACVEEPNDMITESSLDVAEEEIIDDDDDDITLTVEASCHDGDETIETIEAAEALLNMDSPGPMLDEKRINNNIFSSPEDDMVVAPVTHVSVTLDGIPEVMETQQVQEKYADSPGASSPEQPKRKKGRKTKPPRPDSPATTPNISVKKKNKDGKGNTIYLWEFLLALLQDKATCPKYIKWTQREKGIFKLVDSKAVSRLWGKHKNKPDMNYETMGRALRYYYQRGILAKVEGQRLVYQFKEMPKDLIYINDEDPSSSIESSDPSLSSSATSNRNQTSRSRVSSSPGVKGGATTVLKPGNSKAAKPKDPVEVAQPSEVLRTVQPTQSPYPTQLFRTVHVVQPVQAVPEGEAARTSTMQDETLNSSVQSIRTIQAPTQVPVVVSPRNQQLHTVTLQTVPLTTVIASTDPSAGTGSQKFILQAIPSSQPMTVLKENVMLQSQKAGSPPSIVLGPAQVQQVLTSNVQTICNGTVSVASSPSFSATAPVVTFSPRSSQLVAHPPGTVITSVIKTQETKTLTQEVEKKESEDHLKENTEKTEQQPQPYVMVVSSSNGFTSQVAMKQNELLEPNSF

B1: 4 GGAA motifs (dsDNA)
DNA 1: TGCAGGAAGGAAGGAAGGAAAGCT
DNA 2: AGCTTTCCTTCCTTCCTTCCTGCA
B1: the binding result in series [1] is “binds”.

B2: 7 GGAA motifs (dsDNA)
DNA 1: TGCAGGAAGGAAGGAAGGAAGGAAGGAAGGAAAGCT
DNA 2: AGCTTTCCTTCCTTCCTTCCTTCCTTCCTTCCTGCA
As for B2, the binding result (in series [2]; in series [3]; with ETS1; in the series with ELF1) was “binds” in each case.

B3: 6 GGAA motifs (dsDNA)
DNA 1: TGCAGGAAGGAAGGAAGGAAGGAAGGAAAGCT
DNA 2: AGCTTTCCTTCCTTCCTTCCTTCCTTCCTGCA
As to B3, the binding result in series [2] and in series [3] was “binds” in each case.

B4: 5 GGAA motifs (dsDNA)
DNA 1: TGCAGGAAGGAAGGAAGGAAGGAAAGCT
DNA 2: AGCTTTCCTTCCTTCCTTCCTTCCTGCA
With B4, the binding result in series [2] and in series [3] was “binds” in each case.
